Measured values from patent US20210388087A1 (Chugai, published 2021).
Substitutions are numbered along the chain they refer to. Numbers in names are those of the source.

B1: CE115HA000 E61D one-arm antibody (antibody, human IgG1, kappa, L234A L235A, N297A, name in Kabat numbering)
heavy: QVQLVESGGGVVQPGRSLRLSCAASGFTFSNAWMHWVRQAPGKGLEWVAQIKAKSNNYATYYADSVKGRFTISRDDSKNSLYLQMNSLKTEDTAVYYCRYVHYGAYYGVDAWGQGTTVTVSSASTKGPSVFPLAPSSKSTSGGTAALGCLVKDYFPEPVTVSWNSGALTSGVHTFPAVLQSSGLYSLSSVVTVPSSSLGTQTYICNVNHKPSNTKVDKKVEPKSCDKTHTCPPCPAPEAAGGPSVFLFPPKPKDTLMISRTPEVTCVVVDVSHEDPEVKFNWYVDGVEVHNAKTKPREEQYASTYRVVSVLTVLHQDWLNGKEYKCKVSNKALPAPIEKTISKAKGQPREPQVYTLPPSRCELTKNQVSLSCAVKGFYPSDIAVEWESNGQPENNYKTTPPVLDSDGSFFLVSKLTVDKSRWQQGNVFSCSVMHEALHNHYTQKSLSLSPDYKDDDDK
chain: EPKSSDKTHTCPPCPAPELLGGPSVFLFPPKPKDTLMISRTPEVTCVVVDVSHEDPEVKFNWYVDGVEVHNAKTKPREEQYNSTYRVVSVLTVLHQDWLNGKEYKCKVSNKALPAPIEKTISKAKGQPREPQVCTLPPSRDELTKNQVSLWCLVKGFYPSDIAVEWESNGQPENNYKTTPPVLDSDGSFFLYSKLTVDKSRWQQGNVFSCSVMHEALHNRYTQKSLSLSP
light: DIVMTQSPLSLPVTPGEPASISCRSSQSLVHSNRNTYLHWYQQKPGQAPRLLIYKVSNRFSGVPDRFSGSGSGTDFTLKISRVEAEDVGVYYCGQGTQVPYTFGQGTKLEIKRTVAAPSVFIFPPSDEQLKSGTASVVCLLNNFYPREAKVQWKVDNALQSGNSQESVTEQDSKDSTYSLSSTLTLSKADYEKHKVYACEVTHQGLSSPVTKSFNRGEC
B2: CE115HA000 G100bF one-arm antibody (antibody, human IgG1, kappa, L234A L235A, N297A, name in Kabat numbering)
heavy: B1 heavy with D64E, G108F
chain: B1 chain
light: B1 light
B3: CE115HA000 G100bE one-arm antibody (antibody, human IgG1, kappa, L234A L235A, N297A, name in Kabat numbering)
heavy: B1 heavy with D64E, G108E
chain: B1 chain
light: B1 light
B4: CE115HA000 G98A one-arm antibody (antibody, human IgG1, kappa, L234A L235A, N297A, name in Kabat numbering)
heavy: B1 heavy with D64E, G104A
chain: B1 chain
light: B1 light
B5: CE115HA000 G98Q one-arm antibody (antibody, human IgG1, kappa, L234A L235A, N297A, name in Kabat numbering)
heavy: B1 heavy with D64E, G104Q
chain: B1 chain
light: B1 light
B6: CE115HA000 G98H one-arm antibody (antibody, human IgG1, kappa, L234A L235A, N297A, name in Kabat numbering)
heavy: B1 heavy with D64E, G104H
chain: B1 chain
light: B1 light
B7: CE115HA000 H35I one-arm antibody (antibody, human IgG1, kappa, L234A L235A, N297A, name in Kabat numbering)
heavy: B1 heavy with H35I, D64E
chain: B1 chain
light: B1 light
B8: CE115HA000 G98Y one-arm antibody (antibody, human IgG1, kappa, L234A L235A, N297A, name in Kabat numbering)
heavy: B1 heavy with D64E, G104Y
chain: B1 chain
light: B1 light
B9: CE115HA000 F29V one-arm antibody (antibody, human IgG1, kappa, L234A L235A, N297A, name in Kabat numbering)
heavy: B1 heavy with F29V, D64E
chain: B1 chain
light: B1 light
B10: CE115HA000 G98S one-arm antibody (antibody, human IgG1, kappa, L234A L235A, N297A, name in Kabat numbering)
heavy: B1 heavy with D64E, G104S
chain: B1 chain
light: B1 light
B11: CE115HA000 H35R one-arm antibody (antibody, human IgG1, kappa, L234A L235A, N297A, name in Kabat numbering)
heavy: B1 heavy with H35R, D64E
chain: B1 chain
light: B1 light
B12: CE115HA000 H35L one-arm antibody (antibody, human IgG1, kappa, L234A L235A, N297A, name in Kabat numbering)
heavy: B1 heavy with H35L, D64E
chain: B1 chain
light: B1 light
B13: CE115HA000 E61P one-arm antibody (antibody, human IgG1, kappa, L234A L235A, N297A, name in Kabat numbering)
heavy: B1 heavy with D64P
chain: B1 chain
light: B1 light
B14: CE115HA000 G98R one-arm antibody (antibody, human IgG1, kappa, L234A L235A, N297A, name in Kabat numbering)
heavy: B1 heavy with D64E, G104R
chain: B1 chain
light: B1 light
B15: CE115HA000 G100bL one-arm antibody (antibody, human IgG1, kappa, L234A L235A, N297A, name in Kabat numbering)
heavy: B1 heavy with D64E, G108L
chain: B1 chain
light: B1 light
B16: CE115HA000 G65E one-arm antibody (antibody, human IgG1, kappa, L234A L235A, N297A, name in Kabat numbering)
heavy: B1 heavy with D64E, G68E
chain: B1 chain
light: B1 light
B17: CE115HA000 G98P one-arm antibody (antibody, human IgG1, kappa, L234A L235A, N297A, name in Kabat numbering)
heavy: B1 heavy with D64E, G104P
chain: B1 chain
light: B1 light
B18: CE115HA000 G100bD one-arm antibody (antibody, human IgG1, kappa, L234A L235A, N297A, name in Kabat numbering)
heavy: B1 heavy with D64E, G108D
chain: B1 chain
light: B1 light
B19: CE115HA000 H35M one-arm antibody (antibody, human IgG1, kappa, L234A L235A, N297A, name in Kabat numbering)
heavy: B1 heavy with H35M, D64E
chain: B1 chain
light: B1 light
B20: CE115HA000 G98T one-arm antibody (antibody, human IgG1, kappa, L234A L235A, N297A, name in Kabat numbering)
heavy: B1 heavy with D64E, G104T
chain: B1 chain
light: B1 light
B21: CE115HA000 G100bY one-arm antibody (antibody, human IgG1, kappa, L234A L235A, N297A, name in Kabat numbering)
heavy: B1 heavy with D64E, G108Y
chain: B1 chain
light: B1 light
B22: CE115HA000 E61Q one-arm antibody (antibody, human IgG1, kappa, L234A L235A, N297A, name in Kabat numbering)
heavy: B1 heavy with D64Q
chain: B1 chain
light: B1 light
B23: CE115HA000 H35N one-arm antibody (antibody, human IgG1, kappa, L234A L235A, N297A, name in Kabat numbering)
heavy: B1 heavy with H35N, D64E
chain: B1 chain
light: B1 light
B24: CE115HA000 H35Q one-arm antibody (antibody, human IgG1, kappa, L234A L235A, N297A, name in Kabat numbering)
heavy: B1 heavy with H35Q, D64E
chain: B1 chain
light: B1 light
B25: CE115HA000 H35F one-arm antibody (antibody, human IgG1, kappa, L234A L235A, N297A, name in Kabat numbering)
heavy: B1 heavy with H35F, D64E
chain: B1 chain
light: B1 light
B26: CE115HA000 H35G one-arm antibody (antibody, human IgG1, kappa, L234A L235A, N297A, name in Kabat numbering)
heavy: B1 heavy with H35G, D64E
chain: B1 chain
light: B1 light
B27: CE115HA000 H35E one-arm antibody (antibody, human IgG1, kappa, L234A L235A, N297A, name in Kabat numbering)
heavy: B1 heavy with H35E, D64E
chain: B1 chain
light: B1 light
B28: CE115HA000 H35K one-arm antibody (antibody, human IgG1, kappa, L234A L235A, N297A, name in Kabat numbering)
heavy: B1 heavy with H35K, D64E
chain: B1 chain
light: B1 light
B29: CE115HA000 G100bS one-arm antibody (antibody, human IgG1, kappa, L234A L235A, N297A, name in Kabat numbering)
heavy: B1 heavy with D64E, G108S
chain: B1 chain
light: B1 light
B30: CE115HA000 G98K one-arm antibody (antibody, human IgG1, kappa, L234A L235A, N297A, name in Kabat numbering)
heavy: B1 heavy with D64E, G104K
chain: B1 chain
light: B1 light
B31: CE115HA000 G65D one-arm antibody (antibody, human IgG1, kappa, L234A L235A, N297A, name in Kabat numbering)
heavy: B1 heavy with D64E, G68D
chain: B1 chain
light: B1 light
B32: CE115HA000 H35D one-arm antibody (antibody, human IgG1, kappa, L234A L235A, N297A, name in Kabat numbering)
heavy: B1 heavy with H35D, D64E
chain: B1 chain
light: B1 light
B33: CE115HA000 G98D one-arm antibody (antibody, human IgG1, kappa, L234A L235A, N297A, name in Kabat numbering)
heavy: B1 heavy with D64E, G104D
chain: B1 chain
light: B1 light

Target: T1, CD3 epsilon homodimer protein (UniProt P07766 23-126)
T1 construct: immobilized on Sensor chip CM4 by amine coupling; also called CD3 (CD3 epsilon)
T1 sequence (P07766 23-126): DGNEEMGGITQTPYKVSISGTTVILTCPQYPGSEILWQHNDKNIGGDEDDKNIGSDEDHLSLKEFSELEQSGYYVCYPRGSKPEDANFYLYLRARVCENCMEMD
Experiment: SPR (Biacore T200), CD3 epsilon homodimer on CM4 chip, one-arm antibody as analyte, 25 C;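 further: homodimer attached to the sensor surface via amine coupling, HBS-EP+ used as running buffer during binding runs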

ratio of amounts bound (altered form / CE115HA000) | Binder
0.91 | B1
0.3 | B2
0.26 | B3
1.1 | B4
1.22 | B5
1.58 | B6
0.12 | B7
2.22 | B8
0.36 | B9
1.01 | B10
0.14 | B11
0.11 | B12
1.07 | B13
2.96 | B14
0.27 | B15
0.78 | B16
1.02 | B17

ratio of amounts bound (altered form / CE115HA000) | Binder
0.27 | B18
0.29 | B19
1.05 | B20
0.23 | B21
1.07 | B22
0.35 | B23
0.13 | B24
0.21 | B25
0.22 | B26
0.19 | B27
0.15 | B28
0.52 | B29
2.83 | B30
0.76 | B31
0.2 | B32
0.26 | B33
